“Also recorded” adds a separate entry of the source.
Tested on: DLD-1 Flp-In T-REx and Lyn KO cells
Assay: Level of Lyn / Lyn-GFP variants after NMT1/2 and DCAF10 siRNA, Western blot
Type: cell-based, human
Conditions: DLD-1, 72 h siRNA
From the text: To further investigate the role of the Nt-amino acid and its modification in DCAF10 recognition and DCAF10-dependent ubiquitination, we used the CRISPR/Cas9 technique to knock out Lyn in DLD-1 cell lines with T-REx Flp-In background (DLD-1 Lyn KO Flp-In T-REx) (Supplementary Fig. 7a–c). We then integrated Lyn^WT-GFP and two Nt-mutants (Lyn^G2A-GFP and Lyn^G2P-GFP) under a doxycycline-inducible promoter into the Flp-In cassette. Alanine (G2A) is expected to be efficiently acetylated by NatA, generating an Nt-acetylated Lyn mutant. Conversely, the proline (G2P) mutant, is expected not to be acetylated and may retain a free N-terminus[3],[36],[37]. Doxycycline-induced expression of Lyn^WT-GFP, Lyn^G2A-GFP, and Lyn^G2P-GFP was confirmed by Western blot, MS, and fluorescence microscopy (Supplementary Figs. 7d, e; 8a and Supplementary Data 6). […]
Fig. 6 N-terminal glycine mutation abolishes DCAF10-dependent stability and ubiquitination. a DLD-1 Flp-In T-REx cells and Lyn KO cells expressing Lyn^WT-GFP, Lyn^G2A-GFP, or Lyn^G2P-GFP were induced for 24 h with 100 ng/mL doxycycline. […] Filled circles represent siRNA treatment, empty circles untreated. b WB quantifications of Lyn levels normalized to vinculin. […] Lysates have been treated with NMT1/2 RNAi for 72 h. i Quantification of in vitro ubiquitination assays. […]

| Molecule | Dependency on NMT1/2 and DCAF10 (in words) |
| --- | --- |
| Lyn^G2A-GFP: Nt-mutant (G2A) Lyn-GFP (protein, UniProt P07948 2-512, looked up, variant G2A, GFP fusion) Tyrosine-protein kinase Lyn: ACIKSKGKDSLSDDGVDLKTQPVRNTERTIYVRDPTSNKQQRPVPESQLLPGQRFQTKDPEEQGDIVVALYPYDGIHPDDLSFKKGEKMKVLEEHGEWWKAKSLLTKKEGFIPSNYVAKLNTLETEEWFFKDITRKDAERQLLAPGNSAGAFLIRESETLKGSFSLSVRDFDPVHGDVIKHYKIRSLDNGGYYISPRITFPCISDMIKHYQKQADGLCRRLEKACISPKPQKPWDKDAWEIPRESIKLVKRLGAGQFGEVWMGYYNNSTKVAVKTLKPGTMSVQAFLEEANLMKTLQHDKLVRLYAVVTREEPIYIITEYMAKGSLLDFLKSDEGGKVLLPKLIDFSAQIAEGMAYIERKNYIHRDLRAANVLVSESLMCKIADFGLARVIEDNEYTAREGAKFPIKWTAPEAINFGCFTIKSDVWSFGILLYEIVTYGKIPYPGRTNADVMTALSQGYRMPRVENCPDELYDIMKMCWKEKAEERPTFDYLQSVLDDFYTATEGQYQQQP | did not show such dependency; also recorded: slight increase after DCAF10 depletion, independently of NMT1/2 |
| Lyn^G2P-GFP: Nt-mutant (G2P) Lyn-GFP (protein, UniProt P07948 2-512, looked up, variant G2P, C-terminal GFP fusion) Tyrosine-protein kinase Lyn: PCIKSKGKDSLSDDGVDLKTQPVRNTERTIYVRDPTSNKQQRPVPESQLLPGQRFQTKDPEEQGDIVVALYPYDGIHPDDLSFKKGEKMKVLEEHGEWWKAKSLLTKKEGFIPSNYVAKLNTLETEEWFFKDITRKDAERQLLAPGNSAGAFLIRESETLKGSFSLSVRDFDPVHGDVIKHYKIRSLDNGGYYISPRITFPCISDMIKHYQKQADGLCRRLEKACISPKPQKPWDKDAWEIPRESIKLVKRLGAGQFGEVWMGYYNNSTKVAVKTLKPGTMSVQAFLEEANLMKTLQHDKLVRLYAVVTREEPIYIITEYMAKGSLLDFLKSDEGGKVLLPKLIDFSAQIAEGMAYIERKNYIHRDLRAANVLVSESLMCKIADFGLARVIEDNEYTAREGAKFPIKWTAPEAINFGCFTIKSDVWSFGILLYEIVTYGKIPYPGRTNADVMTALSQGYRMPRVENCPDELYDIMKMCWKEKAEERPTFDYLQSVLDDFYTATEGQYQQQP | did not show such dependency |
